Here are results for 38 sequences from the supplement of paper PMC9732359.

± gives the uncertainty stated by the source.

The nature of this data set: protein stability index of a GFP-peptide fusion (yeast GPS) (PSI 1-4); higher = more stable; sorted into four equal gates, so the index is relative within each strain. The gist of the method:
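Peptides tiling yeast proteins in 17-residue segments were fused downstream of GFP, with Cherry expressed from the same plasmid. As a pooled library in yeast, mid-log cultures grown in leucine-free medium were sorted into four equal gates by GFP/Cherry fluorescence ratio. Gate plasmids were PCR-amplified and Illumina-sequenced, and barcodes linked reads to strains. Each peptide received a protein stability index equal to the sum of each gate's read frequency times its gate number.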

As to AGEFGLKNKREIYRISF [RPS9B], the protein stability index amounted to 2.56 ± 0.065 (doa10∆), 2.94 ± 0.091 (pdr5∆), 3.08 ± 0.14 (san1∆) and 2.77 ± 0.066 (ubr1∆).

Turning to GRLLRAMFEICLKRGWG [BRR2], the protein stability index was 1.75 ± 0.11 (doa10∆), 1.59 ± 0.091 (pdr5∆), 1.76 ± 0.12 (san1∆) and 1.81 ± 0.077 (ubr1∆).

As to CAECSSKLSLSRTDAVR [RPC10], the protein stability index is, setting by setting: (doa10∆) 2.12 ± 0.049; (pdr5∆) 2.16 ± 0.047; (san1∆) 2.51 ± 0.061; (ubr1∆) 2.35 ± 0.05.

For the sequence VQKSTKTFSYKRPSTFY [RPL20A], the protein stability index was 2.73 ± 0.15 (doa10∆), 3.34 ± 0.084 (pdr5∆), 3.06 ± 0.085 (san1∆) and 2.23 ± 0.065 (ubr1∆).

Consider ILLSHHRASPADVSIKS [POP5], for which the protein stability index reads like this: (doa10∆) 2.79 ± 0.24; (pdr5∆) 3.4 ± 0.18; (san1∆) 3.24 ± 0.062.

VITPHFITNVQSISQNS [SWI1]: the protein stability index is, setting by setting: (doa10∆) 1.85 ± 0.11; (pdr5∆) 2.45 ± 0.11; (san1∆) 2.2 ± 0.14; (ubr1∆) 1.73 ± 0.073.

As for TGSLMGGNSTQNTSNMN [YGR119C/NUP57], the protein stability index turned out to be 3.19 ± 0.076 (doa10∆), 3.24 ± 0.064 (pdr5∆), 3.07 ± 0.052 (san1∆) and 3.18 ± 0.048 (ubr1∆).

Consider GLESQIQEIKESVELPL [RPT2], for which the protein stability index is, setting by setting: (doa10∆) 2.11 ± 0.087; (pdr5∆) 2.3 ± 0.073; (san1∆) 2.48 ± 0.067; (ubr1∆) 2.83 ± 0.072.

Take KEEFIMMVNISVLISIP [PCI8]: the protein stability index came out at 1.43 ± 0.037 (doa10∆), 1.33 ± 0.033 (pdr5∆), 1.57 ± 0.074 (san1∆) and 1.36 ± 0.031 (ubr1∆).

As for LKIIYTGLCSFDYSVIL [YJL039C/NUP192], the protein stability index reads like this: (doa10∆) 1.73 ± 0.081; (pdr5∆) 1.5 ± 0.057; (san1∆) 1.6 ± 0.11; (ubr1∆) 1.59 ± 0.071.

The sequence TRSHFNALYDTLLESNL [RPN6] registered a protein stability index (doa10∆) of 2.3 ± 0.05, a protein stability index (pdr5∆) of 2.49 ± 0.057, a protein stability index (san1∆) of 2.65 ± 0.047 and a protein stability index (ubr1∆) of 2.69 ± 0.042.

NSNINTLTASPDGTLIA [ASC1] returned a protein stability index (doa10∆) of 2.88 ± 0.078, a protein stability index (pdr5∆) of 2.68 ± 0.061, a protein stability index (san1∆) of 2.88 ± 0.061 and a protein stability index (ubr1∆) of 2.82 ± 0.046.

Consider WRFHTPQKYVLHPQLHE [SIN4], for which the protein stability index is, setting by setting: (doa10∆) 2.17 ± 0.071; (pdr5∆) 2.11 ± 0.069; (san1∆) 1.78 ± 0.13; (ubr1∆) 1.97 ± 0.057.

QQQPQPQYNMNMGMNNM [PGD1] gave a protein stability index (doa10∆) of 3.02 ± 0.049, a protein stability index (pdr5∆) of 2.77 ± 0.05, a protein stability index (san1∆) of 3.29 ± 0.041 and a protein stability index (ubr1∆) of 2.89 ± 0.069.

For SVDLEKLAFGLTKLNED [TAF14], the protein stability index by setting is: (doa10∆) 3.54 ± 0.19; (pdr5∆) 3.45 ± 0.17; (san1∆) 3.6 ± 0.092; (ubr1∆) 3.61 ± 0.12.

Regarding DSGRGAPLAKVVFRDPY [RPL2A], the protein stability index (doa10∆) was 3.06 ± 0.12, the protein stability index (pdr5∆) stood at 2.83 ± 0.13, the protein stability index (san1∆) was determined as 3.03 ± 0.072 and the protein stability index (ubr1∆) is 3.01 ± 0.067.

Regarding KLLIQIDELSNGQRSNS [SMC1], the protein stability index by setting is: (doa10∆) 2.42 ± 0.16; (pdr5∆) 2.59 ± 0.11; (san1∆) 3.14 ± 0.1; (ubr1∆) 3.11 ± 0.16.

As for QLQGPQWMNEMVERWAN [SOH1], the protein stability index reads like this: (doa10∆) 3.28 ± 0.11; (pdr5∆) 3.18 ± 0.091; (san1∆) 2.93 ± 0.099; (ubr1∆) 3.06 ± 0.084.

Consider CVKAIEALFQSRPDILS [YCG1], for which the protein stability index was determined as 3.19 ± 0.083 (doa10∆), 2.47 ± 0.085 (pdr5∆), 3.03 ± 0.082 (san1∆) and 3.05 ± 0.087 (ubr1∆).

For the sequence KPMNKGQHKNNTSLNIN [SWP82], the protein stability index reads like this: (doa10∆) 2.92 ± 0.092; (pdr5∆) 2.84 ± 0.091; (san1∆) 2.91 ± 0.066; (ubr1∆) 2.98 ± 0.059.

With GEIGDFFSSDWRFLQIL [POP1], the protein stability index runs as follows: (doa10∆) 2.73 ± 0.089; (pdr5∆) 2.79 ± 0.09; (san1∆) 2.94 ± 0.066; (ubr1∆) 2.55 ± 0.093.

For the sequence FTAGARAKIVKAGGECI [RPL18A], the protein stability index runs as follows: (doa10∆) 1.29 ± 0.081; (pdr5∆) 1.27 ± 0.067; (san1∆) 1.18 ± 0.17; (ubr1∆) 1.13 ± 0.061.

In the case of FVNGVWHGVHRNPARLM [RPB2], the protein stability index by setting is: (doa10∆) 1.68 ± 0.11; (pdr5∆) 1.44 ± 0.067; (san1∆) 3.39 ± 0.058; (ubr1∆) 1.5 ± 0.042.

With MEERDGAKFENIVHNFK [AAR2], the protein stability index runs as follows: (doa10∆) 3.09 ± 0.1; (pdr5∆) 2.51 ± 0.097; (san1∆) 2.41 ± 0.12; (ubr1∆) 1.88 ± 0.056.

Consider LSIQYMIQKVMEYLKSS [RPN5], for which the protein stability index was found to be 1.38 ± 0.082 (doa10∆), 1.56 ± 0.082 (pdr5∆), 1.59 ± 0.2 (san1∆) and 1.69 ± 0.11 (ubr1∆).

For QAQAQAQAAQAAQAQAQ [GAL11], the protein stability index amounted to 2.84 ± 0.092 (doa10∆), 3.02 ± 0.14 (pdr5∆), 2.93 ± 0.066 (san1∆) and 3.04 ± 0.11 (ubr1∆).

GALPPDLSLIVKARHGG [CYT1]: the protein stability index was determined as 1.83 ± 0.23 (doa10∆), 1.97 ± 0.14 (pdr5∆) and 2.23 ± 0.17 (ubr1∆).

As to GPGGQAALRALARSGLR [RPS14B], the protein stability index runs as follows: (doa10∆) 2.41 ± 0.081; (pdr5∆) 2.59 ± 0.11; (san1∆) 2.22 ± 0.11; (ubr1∆) 2.48 ± 0.085.

Sequence RSRYRREIDALKKQLHV [YIL149C/MLP2] gave a protein stability index (doa10∆) of 3.24 ± 0.074, a protein stability index (pdr5∆) of 3.16 ± 0.05, a protein stability index (san1∆) of 3.23 ± 0.045 and a protein stability index (ubr1∆) of 3.2 ± 0.036.

As for YMFANLEFSIYHRLSNK [CSN12], the protein stability index is 2.13 ± 0.072 (doa10∆), 2.15 ± 0.076 (pdr5∆), 2.42 ± 0.11 (san1∆) and 2.25 ± 0.082 (ubr1∆).

For the sequence SLRETNTTDPLGHTKAA [SIR2], the protein stability index reads like this: (doa10∆) 2.77 ± 0.15; (pdr5∆) 2.7 ± 0.15; (san1∆) 2.85 ± 0.13; (ubr1∆) 3.2 ± 0.082.

The sequence SRNFSTRDEETTKLAFL [SIR4] showed a protein stability index (doa10∆) of 3.04 ± 0.065, a protein stability index (pdr5∆) of 3.09 ± 0.055, a protein stability index (san1∆) of 3.03 ± 0.04 and a protein stability index (ubr1∆) of 2.97 ± 0.038.

Turning to DFIKFDQIAVCEISGSI [BRN1], the protein stability index runs as follows: (doa10∆) 2.32 ± 0.14; (pdr5∆) 2.4 ± 0.12; (san1∆) 2.12 ± 0.14; (ubr1∆) 2.82 ± 0.076.

For the sequence QPNEISFKYLSNNDEDD [RGR1], the protein stability index amounted to 2.37 ± 0.053 (doa10∆), 2.29 ± 0.041 (pdr5∆), 1.88 ± 0.072 (san1∆) and 2.36 ± 0.039 (ubr1∆).

Consider TRDDLLTILMRSIMKNR [RRI2], for which the protein stability index by setting is: (doa10∆) 2.36 ± 0.082; (pdr5∆) 2.61 ± 0.087; (san1∆) 2.22 ± 0.29; (ubr1∆) 2.75 ± 0.067.

As to SPEEQRSLLQEAIETCK [GAL11], the protein stability index was found to be 1.88 ± 0.099 (doa10∆), 2.97 ± 0.13 (pdr5∆), 2.63 ± 0.18 (san1∆) and 2.88 ± 0.069 (ubr1∆).

On to ESSNEAKKTIQNPLNKS [SIR4], for which the protein stability index by setting is: (doa10∆) 3.12 ± 0.071; (pdr5∆) 2.76 ± 0.059; (san1∆) 2.95 ± 0.047; (ubr1∆) 3.11 ± 0.05.

Regarding FLQRVRVWEYRQKNVIH [RPL15A], the protein stability index by setting is: (doa10∆) 1.77 ± 0.24; (pdr5∆) 1.72 ± 0.085; (ubr1∆) 2.02 ± 0.19.
